In this assay the target is HBsAg (patient serum). As to the kind of experiment: Jacalin-bead fractionation of patient serum, HBsAg measured by CLIA.

In the case of “Jacalin lectin (from UniProt P18670 1-133)”, the share of the total serum HBsAg that binds to Jacalin was determined as 5%.

For the origin of these results see US20210283246A1.
